The values below are quoted from earlier work in patent publication US6446032B1, “Designing compounds specifically inhibiting ribonucleic acid by binding to the minor groove” (Massachusetts Institute of Technology, priority 1990, dated 2002).

The data set relates to normal cells as well as tumor cells. Conditions: binds and cleaves all rRNAs.

B1: Alpha-sarcin: cytotoxic protein with potent antisarcoma activity, isolated from a mold, that inactivates ribosomes by cleaving the rRNA (protein, UniProt P00655 28-177, looked up)
Ribonuclease alpha-sarcin: AVTWTCLNDQKNPKTNKYETKRLLYNQNKAESNSHHAPLSDGKTGSSYPHWFTNGYDGDGKLPKGRTPIKFGKSDCDRPPKHSKDGNGKTDHYLLEFPTFPDGHDYKFDSKKPKENPGPARVIYTYPNKVFCGIIAHTKENQGELKLCSH
Turning to B1, the toxicity to cells result is “highly toxic to normal cells as well as tumor cells”.
